Measured values as given in patent publication US20180251563A1 (SUBDOMAIN, published 2018).
Changes are numbered by the printed parent chain.

B1: SEQ ID NO 15 (designed binder)
chain: MGSWYEFSMRLWAIDQRLYALGGSEAELAAFEKEIAAFESELQAYKGKGNPEVEALRAKAAYIRWKLQAYRHN
B2: SEQ ID NO 13 (designed binder)
chain: B1 chain with Y5V, S8A, M9N, Y19F, A55H, A58D, K59Q, Y62F, W65H
B3: SEQ ID NO 18 (designed binder)
chain: B1 chain with S8H, M9Y, W12H, A55E, A58I, Y62F, W65D, K66R
B4: SEQ ID NO 17 (designed binder)
chain: B1 chain with S8G, M9H, A55Y, A58E, K59T, Y62H, W65T, K66R
B5: SEQ ID NO 16 (designed binder)
chain: MGSWFEFNHRLWAINERLYALGGSEAELAAFEKEIAAFESELQAYKGKGNPEVERLRSMAAFIRYKLQAYRHN
B6: SEQ ID NO 23 (designed binder)
chain: MGSWTEFVGRLAAIEFRLWALGGSEAELAWFEAHIAFFEDYLQWYKGKGNPEVEALREEAGAIMEELKAYRHN
B7: SEQ ID NO 21 (designed binder)
chain: MGSWTEFTYRLSAIEWRLWALGGSEAELAWFEQKIAFFEDFLQYYKGKGNPEVEALKHEAGAILNELMAYRHN
B8: SEQ ID NO 20 (designed binder)
chain: MGSWYEFDLRLHAIYDRLVALGGSEAELAAFEKEIAAFESELQAYKGKGNPEVEILRDNAAYIRQMLQAYRHN
B9: SEQ ID NO 22 (designed binder)
chain: B8 chain with Y5A, L9H, Y15R, D16E, V19H, D58G, Q65A, M66L
B10: SEQ ID NO 24 (designed binder)
chain: MGSWTEFYSRLEAIWVRLQALGGSEAELAMFEDRIAHFEWFLQQYKGKGNPEVEALHEEAIAIRKELAAYRHN
B11: SEQ ID NO 41 (designed binder)
chain: B5 chain with N8Q, H9D, W12T, Y19S, R55T, M59D, Y65R, K66F
B12: SEQ ID NO 40 (designed binder)
chain: MGSWYEFQNRLHAIHERLNALGGSEAELAAFEKEIAAFESELQAYKGKGNPEVELLRDDAAFIRHFLQAYRHN
B13: SEQ ID NO 38 (designed binder)
chain: B12 chain with Y5T, N9S, H12D, E16S, N19R
B14: SEQ ID NO 43 (designed binder)
chain: B12 chain with Q8N, N9H, H12D, H15S, E16K, L55E, D58G
B15: SEQ ID NO 42 (designed binder)
chain: B12 chain with Q8E, N9S, H12D, N19H, L55N, D58G
B16: SEQ ID NO 39 (designed binder)
chain: B12 chain with Y5Q, Q8D, N9D, H12N, H15K, E16A, N19Q, L55D, H65R
B17: SEQ ID NO 44 (designed binder)
chain: B12 chain with Y5F, Q8E, H15V, E16H, N19G, L55T, D58A, F66Y
B18: SEQ ID NO 48 (designed binder)
chain: MGSWYAFKDYLADIKGWLEALGGSEAELAFFEIFIARFELELQAYKGKGNPEVEALRKEAAAIRDELQAYRHN
B19: SEQ ID NO 46 (designed binder)
chain: MGSWTIFKEWLAFIKTDLEALGGSEAELAFFEGWIASFEMELQKYKGKGNPEVEALRKEAAAIRDELQAYRHN
B20: SEQ ID NO 47 (designed binder)
chain: MGSWVMFKWLLADIKSHLEALGGSEAELAFFEGFIAAFETHLQVYKGKGNPEVEALRKEAAAIRDELQAYRHN
B21: FLAG-pb04 (designed binder)
chain: B12 chain with Q8T, N9V, H12E, N19K, L55I, H65R
notes: expressed and purified from E. coli; also called N-terminal FLAG tag fusion of pb04; soluble DBDpp (FLAG tagged) directed against PD-L1; not shown: N-terminal FLAG tag
B22: pb06 DBDpp-6xHIS fusion (designed binder)
chain: B12 chain with Q8D, N9D, H12N, E16D, N19Q, L55D, H65R
notes: made by in vitro transcription and translation; not shown: 6xHIS tag
B23: SEQ ID NO 184 (designed binder)
chain: B12 chain with Q8D, N9D, H12N, E16D, N19Q, L55D, H65R
notes: also called pb06
B24: SEQ ID NO 186 (designed binder)
chain: B12 chain with Y5T, Q8E, N9Q, H12E, E16N, N19Q, L55E, D58N
B25: SEQ ID NO 181 (designed binder)
chain: B12 chain with Y5N, Q8H, N9D, H12N, E16A, N19H, L55N, H65R
B26: SEQ ID NO 185 (designed binder)
chain: B12 chain with Y5N, Q8K, H12D, E16K, L55N
B27: SEQ ID NO 183 (designed binder)
chain: B12 chain with Y5K, Q8D, N9D, H12N, H15K, E16A, N19Q, L55D, H65R

Each binder was assayed against T1, recombinant, biotinylated, Human 4-1BB/TNFRSF9/CD137-Fc (human, UniProt Q07011 24-186, biotinylated (F2NNK selection)) (assay: phage ELISA, target-Fc against non-specific control).
T1 construct: also called 4-1BB/CD137; not shown: Fc
Experimental: (§1) Selections were also performed using F1, F2, F3, C1 & C2 trinucleotide phosphoramidite libraries. In most cases, libraries were pooled prior to use in selection. By combining equal volumes of the individual libraries, Pool F (libraries F1, F2 and F3) and Pool C (libraries C1 and C2) were generated. These libraries were used in selections for DBDpp binders to 4-1BB/CD137 as well as a larger panel of purified recombinant “target”-Fc proteins, including CD47, CTLA4, DR5, KIR, LAG3, OX40, PD1, PD-L1 and TIM3. (Many of these targets are considered immuno-regulatory factors (Pardoll et al., Nat. Rev. Cancer 12:252-264 (2012)). After incubation of the target with the pools of DBDpp phage libraries, bound phage-target complexes were captured and separated from unbound phage with protein A beads (target proteins were Fc fusions). After three rounds of selection, rescued phage clones were screened by ELISA for binding to the selected target.
(§2) For each target, approximately 90 DBDpp phage clones were screened by ELISA for binding to the target protein and as well as a non-specific control (e.g., IgG1-Fc). […] In some instances, for the ELISA screening plate in which the majority of DBDpp clones were positive, the entire plate was sequenced.

T1 sequence (Q07011 24-186 limits assumed): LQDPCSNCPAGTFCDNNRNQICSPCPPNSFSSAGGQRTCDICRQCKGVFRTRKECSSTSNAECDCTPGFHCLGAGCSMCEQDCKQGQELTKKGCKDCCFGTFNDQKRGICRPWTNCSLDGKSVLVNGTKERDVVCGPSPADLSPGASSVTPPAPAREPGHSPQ

Point of comparison: B1, “ELISA ratio (target to background)” value 12 ratio. Against it:
- B2 — higher, 16.1 ratio
- B3 — lower, 7.26 ratio
- B4 — lower, 7.71 ratio
- B5 — lower, 11.9 ratio

Each binder was assayed against T2, CD47-Fc (UniProt Q08722 19-139) in the same assay as above.
T2 construct: purified recombinant target-Fc protein; not shown: Fc
Experimental: as §1, §2

T2 sequence (Q08722 19-139 limits assumed): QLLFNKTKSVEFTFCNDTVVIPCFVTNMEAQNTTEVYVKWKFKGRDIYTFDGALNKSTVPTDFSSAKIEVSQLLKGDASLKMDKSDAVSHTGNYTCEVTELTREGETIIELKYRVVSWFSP

Point of comparison: B8, “ELISA ratio (target to background)” value 14.1 ratio. Against it:
- B6 — lower, 8.23 ratio
- B7 — lower, 12.5 ratio
- B9 — lower, 11.7 ratio
- B10 — lower, 4.58 ratio

The binders below were run against T3, PD-L1-Fc (UniProt Q9NZQ7 19-238) in the same assay as above.
T3 construct: purified recombinant target-Fc protein; also called FC-PD-L1; not shown: Fc
Experimental: as §1, §2

T3 sequence (Q9NZQ7 19-238 limits assumed): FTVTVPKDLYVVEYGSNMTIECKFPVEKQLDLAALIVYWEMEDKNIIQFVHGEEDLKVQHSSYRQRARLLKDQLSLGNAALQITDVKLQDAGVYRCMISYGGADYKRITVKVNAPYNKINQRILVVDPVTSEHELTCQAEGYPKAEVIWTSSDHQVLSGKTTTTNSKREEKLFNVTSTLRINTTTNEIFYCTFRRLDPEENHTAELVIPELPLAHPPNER

Point of comparison: B16, “ELISA ratio (target to background)” value 7.41 ratio. Against it:
- B11 — lower, 6.01 ratio
- B12 — lower, 6.34 ratio
- B13 — higher, 8.68 ratio
- B14 — lower, 2.98 ratio
- B15 — lower, 4.88 ratio
- B17 — lower, 2.76 ratio

Each binder was assayed against T4, PD1-Fc (UniProt Q15116 25-167) in the same assay as above.
T4 construct: purified recombinant target-Fc protein; not shown: Fc
Experimental: as §1, §2

T4 sequence (Q15116 25-167 limits assumed): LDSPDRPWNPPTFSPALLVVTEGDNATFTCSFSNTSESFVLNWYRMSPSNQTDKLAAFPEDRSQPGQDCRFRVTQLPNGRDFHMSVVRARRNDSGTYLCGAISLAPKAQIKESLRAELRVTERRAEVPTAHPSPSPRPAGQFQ

Point of comparison: B18, “ELISA ratio (target to background)” value 3.29 ratio. Against it:
- B19 — higher, 17.1 ratio
- B20 — higher, 8.13 ratio

The binders below were run against human PD-L1 (human, UniProt Q9NZQ7 19-238, limits assumed) (assay: ELISA, FLAG-tagged pb04 on immobilised Human PDL1-Fc).
Experimental: (§3) FIG. 16A establishes that a soluble DBDpp selected for binding to human PD-L1 (pb04 in this nonlimiting embodiment), can also bind PD-L1 of cynomolgus (Macaca fascicularis), as assessed by ELISA. Human PD-L1 or cynomolgus PD-L1 was immobilized in separate wells of an ELISA plate. Soluble DBDpp (FLAG tagged) directed against PD-L1 was incubated in the respective plates to assess the degree of binding with PD-L1 from each species. As shown, pb04 DBDpp binds to both human and cynomolgus PD-L1.

human PD-L1, sequence (Q9NZQ7 19-238 limits assumed): as the sequence (Q9NZQ7 19-238 limits assumed) above

B21 gave an EC50 of 31.4 nM.

These binders were tested against T3, PD-L1-Fc (assay: ELISA on PD-L1-Fc, in vitro translated DBDpp-6xHIS heated 2 minutes at 25-100 C and serially diluted, detection with anti-6xHIS-HRP).
Experimental: DBDpp-6×HIS fusions (pb04 and pb06) and scFv-6×HIS fusions were expressed through in vitro transcription and translation reactions (NEB, PureExpress). Samples were diluted in ELISA blocking buffer (Thermo Fisher) 30 fold. Individual samples were subsequently incubated at either 25° C., 40° C., 55° C., 70° C. or 100° C. for 2 minutes and then rapidly returned to room temperature. The temperature increase, followed by rapid cooling can cause denaturation of the protein or other breakdown of the three-dimensional structure of proteins that reduce target interaction and/or binding. The ability of proteins to bind with a ligand, such as a target tumor antigen, after being exposed to denaturing conditions indicates either enhanced stability during exposure to elevated temperature or an ability to re-fold and maintain function after exposure. […]
The heat-exposed samples were serially diluted in ELISA buffer and measured for binding to PD-L1-Fc in ELISA. Bound proteins were detected with HRP-conjugated rabbit anti-6×HIS polyclonal antibody (Abcam). […] Since this particular scFv is not configured to bind PD-L1, this function as a negative control, and as expected, no binding is detected for any of the DR5 scFv, regardless of the temperatures they were exposed to. […]

B22: binds.

These binders were tested against T5, cynomolgus PD-L1 (cynomolgus (Macaca fascicularis), UniProt G7PSE7 19-238) (assay: ELISA, FLAG-tagged pb04 on immobilised Cynomolgus PDL1-Fc).
T5 construct: also called PD-L1 of cynomolgus (Macaca fascicularis)
Experimental: as §3

T5 sequence (G7PSE7 entry or part of it): as the sequence (Q9NZQ7 19-238 limits assumed) above, with A33T, A34S, S62N, R68Q, Q82R, F173L, T185A, T192I, H215L counted along it

B21 showed an EC50 of 42.1 nM.

The binders below were run against PD-L1 (target of Example 25) (UniProt Q9NZQ7 19-238, limits assumed) (assay: library selection; assay not described).
PD-L1 (target of Example 25), sequence (Q9NZQ7 19-238 limits assumed): as the sequence (Q9NZQ7 19-238 limits assumed) above

B23: binds.
B24: binds.
B25: binds.
B26: binds.
B27: binds.
